Test results reported in patent publication US6964763 (CORNELL RESEARCH FOUNDATION, dated 2005).

B1: Purified human calcium-replete thrombospondin-1 (TSP1) from thrombin-activated platelets (ligand)
chain: not shown
notes: mature; also called purified platelet TSP1
B2: RANTES (regulated on activation normal T expressed and secreted protein) (ligand, UniProt P13501 24-91, looked up)
chain: SPYSSDTTPCCFAYIARPLPRAHIKEYFYTSGKCSNPAVVFVTRKNRQVCANPEKKWVREYINSLEMS

How the values were obtained:
[1] = target: T1, CHO cell-expressed soluble recombinant CD4 (UniProt P01730 26-394); assay: solid phase binding, 125I-CD4 on immobilized TSP1
T1 construct: also called soluble CD4
Procedure: (§1) Washed wells were blocked with 0.5% bovine serum albumin ("BSA"), then incubated in triplicate with soluble radiolabeled ligand for 2.5 hours at 37° C. After extensive washing in 50 mM Tris pH 7.5, 150 mM NaCl, 0.5% Tween-20 (TBS-Tween), bound radioactivity was quantified by gamma counter. […] Specific binding was determined as quenchable in the presence of excess unlabeled ligand, above background binding to BSA-coated wells.

[2] = target: B1; assay: solid phase binding, 125I-RANTES on immobilized TSP1; saturatable, biphasic
Procedure: as §1

| Binder | binding result [1] | EC50 [2] [nM] |
| --- | --- | --- |
| B1 | binds | – |
| B2 | – | ~330 |
